Data as given in patent publication US20250320292A1 (PANDION OPERATIONS, published 2025).

Legend:
Mouse Robo2 [1] = biological target: T1, Mouse Robo2 (mouse, UniProt Q7TPD3 22-863, limits assumed); assay: BLI (Octet RED96); test article captured on biosensor (method names CDAB5 on anti-human Fc, result names CDAB6), mouse Robo2 titrated from 50 nM
T1 construct: also called mRobo2
T1 sequence: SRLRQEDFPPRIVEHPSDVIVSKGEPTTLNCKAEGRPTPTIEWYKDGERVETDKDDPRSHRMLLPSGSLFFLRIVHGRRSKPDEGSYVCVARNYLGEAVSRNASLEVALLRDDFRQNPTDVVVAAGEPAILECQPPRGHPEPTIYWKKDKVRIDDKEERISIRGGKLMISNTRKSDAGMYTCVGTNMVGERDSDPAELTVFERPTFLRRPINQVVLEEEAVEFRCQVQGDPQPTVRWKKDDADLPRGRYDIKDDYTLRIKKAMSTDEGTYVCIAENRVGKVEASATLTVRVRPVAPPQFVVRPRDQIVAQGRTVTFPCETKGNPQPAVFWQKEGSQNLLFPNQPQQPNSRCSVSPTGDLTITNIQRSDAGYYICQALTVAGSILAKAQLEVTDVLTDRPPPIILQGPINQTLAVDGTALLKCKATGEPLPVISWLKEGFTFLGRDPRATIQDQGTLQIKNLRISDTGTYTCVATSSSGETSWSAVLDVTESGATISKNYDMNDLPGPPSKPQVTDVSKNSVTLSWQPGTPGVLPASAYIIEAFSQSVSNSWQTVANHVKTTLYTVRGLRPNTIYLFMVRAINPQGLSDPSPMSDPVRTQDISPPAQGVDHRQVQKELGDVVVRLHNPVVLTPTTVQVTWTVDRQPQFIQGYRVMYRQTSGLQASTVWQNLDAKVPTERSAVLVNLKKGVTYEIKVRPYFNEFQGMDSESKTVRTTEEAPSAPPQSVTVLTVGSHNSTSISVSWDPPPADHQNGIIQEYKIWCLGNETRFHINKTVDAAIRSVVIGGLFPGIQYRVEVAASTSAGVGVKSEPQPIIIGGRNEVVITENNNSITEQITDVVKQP
Description: (§1) Anti-human Fc (for CDAB1, CDAB5, Fc-rat COL4A3) or anti-Streptavidin (for CDAB3) or HIS1K (COL4A3-His) biosensors were equilibrated in assay buffer (1% BSA in 1×PBS with 0.05% Tween-20) for 10 minutes before the experiment was setup. Immobilizing reagents were diluted to 4 μg/mL in assay buffer and 200 μL pipetted to 96 well plate. Mouse Robo2 or TAs were titrated down, two-fold dilutions (starting at 50 nM as the highest concentration, 7-point dilution). The experiment was conducted using data acquisition software version 10.0 for OCTET96 RED. Test articles were captured using anti-human Fc biosensors for 180 s. Biosensors loaded with test articles were then equilibrated in assay buffer for 120 s. Association was performed in wells with mRobo2 or TA for 180 seconds. Dissociation was performed in wells with assay buffer for 180 s.

Mouse Robo2 [2] = biological target: T1, Mouse Robo2; assay: BLI (Octet RED96); CDAB3 on anti-Streptavidin biosensor, mouse Robo2 titrated two-fold from 50 nM
Description: as §1

recROBO2 = assay: cell-based or functional assay
Mouse Robo2 [3] = biological target: T1, Mouse Robo2; assay: BLI (Octet RED96); CDAB1 captured on anti-human Fc biosensor, mouse Robo2 titrated two-fold from 50 nM
Description: as §1

Sequence of recROBO2 (Q9HCK4 whole entry): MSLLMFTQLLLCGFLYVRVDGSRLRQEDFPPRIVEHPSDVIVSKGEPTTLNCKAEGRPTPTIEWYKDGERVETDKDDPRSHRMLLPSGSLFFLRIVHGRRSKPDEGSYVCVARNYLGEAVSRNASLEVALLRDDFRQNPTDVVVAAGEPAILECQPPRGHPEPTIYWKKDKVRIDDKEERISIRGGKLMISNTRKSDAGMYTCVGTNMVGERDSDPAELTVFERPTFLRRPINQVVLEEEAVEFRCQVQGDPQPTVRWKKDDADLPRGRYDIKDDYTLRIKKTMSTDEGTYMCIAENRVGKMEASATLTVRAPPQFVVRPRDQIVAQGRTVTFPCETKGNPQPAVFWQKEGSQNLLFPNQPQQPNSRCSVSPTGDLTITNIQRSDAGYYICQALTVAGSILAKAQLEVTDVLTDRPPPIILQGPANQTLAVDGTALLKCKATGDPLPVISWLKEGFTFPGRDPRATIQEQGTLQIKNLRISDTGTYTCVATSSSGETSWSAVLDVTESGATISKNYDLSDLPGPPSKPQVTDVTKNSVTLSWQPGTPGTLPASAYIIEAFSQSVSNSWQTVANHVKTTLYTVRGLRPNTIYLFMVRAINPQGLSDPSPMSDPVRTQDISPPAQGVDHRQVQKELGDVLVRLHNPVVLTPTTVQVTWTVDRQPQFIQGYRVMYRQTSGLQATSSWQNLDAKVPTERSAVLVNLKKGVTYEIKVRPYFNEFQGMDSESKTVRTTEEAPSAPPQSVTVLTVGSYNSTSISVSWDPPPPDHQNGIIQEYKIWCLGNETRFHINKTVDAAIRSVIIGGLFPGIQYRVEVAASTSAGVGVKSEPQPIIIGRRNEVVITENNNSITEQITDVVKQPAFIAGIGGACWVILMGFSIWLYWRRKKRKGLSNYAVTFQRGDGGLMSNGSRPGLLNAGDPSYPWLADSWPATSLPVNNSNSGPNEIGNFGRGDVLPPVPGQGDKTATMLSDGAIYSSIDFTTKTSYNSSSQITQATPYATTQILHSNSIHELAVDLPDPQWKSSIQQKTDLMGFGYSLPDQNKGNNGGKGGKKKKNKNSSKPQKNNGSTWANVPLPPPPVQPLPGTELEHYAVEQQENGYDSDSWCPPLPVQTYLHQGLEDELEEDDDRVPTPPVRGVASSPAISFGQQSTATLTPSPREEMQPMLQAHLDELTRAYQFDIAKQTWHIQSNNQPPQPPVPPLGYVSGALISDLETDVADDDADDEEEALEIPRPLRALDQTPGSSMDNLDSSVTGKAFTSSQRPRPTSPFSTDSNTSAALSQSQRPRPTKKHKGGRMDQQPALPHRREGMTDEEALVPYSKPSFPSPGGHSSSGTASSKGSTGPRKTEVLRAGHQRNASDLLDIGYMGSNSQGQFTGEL

B1: CDAB6 (Fc fusion)
chain: DCGPPPDIPNARPILGRHSKFAEQSKVAYSCNNGFKQVPDKSNIVVCLENGQWSSHETFCEKSCVAPERLSFASLKKEYLNMNFFPVGTIVEYECRPGFRKQPPLPGKATCLEDLVWSPVAQFCKKKSCPNPKDLDNGHINIPTGILFGSEINFSCNPGYRLVGVSSTFCSVTGNTVDWDDEFPVCTEIHCPEPPKINNGIMRGESDSYTYSQVVTYSCDKGFILVGNASIYCTVSKSDVGQWSSPPPRCIEKSKVPTKKPTINVPSTGTPSTPQKPTTESVPNPGDQPTPQKPSTVKVSATQHVPVTKTTVRHPIRTSTDKGEPNTGGGGGSGGGGSGGGGSGGGGSDKTHTCPPCPAPEAAGAPSVFLFPPKPKDTLMISRTPEVTCVVVDVSHEDPEVKFNWYVDGVEVHNAKTKPREEQYNSTYRVVSVLTVLHQDWLNGKEYKCKVSNKALPAPIEKTISKAKGQPREPQVYTLPPSREEMTKNQVSLTCLVKGFYPSDIAVEWESNGQPENNYKTTPPVLDSDGSFFLYSKLTVDKSRWQQGNVFSCSVMHEALHNHYTQKSLSLSPGGGGGSGGGGSGGGGSGGGGSEVQLVQSGAEVKKPGASVKVSCKASGYTFTGYYMHWVRQAPGQGLEWMGWINPKNGDTEFPQKFQGRVTMTRDTSITTAYMDLSRLRSDDTAVYYCARESGDDAFDIWGQGTMVTVSSGGGGGSGGGGSGGGGSDIVMTQSPSSLSASVGDRVTITCRASQSISSYLNWYQQKPGKAPKLLIYAASSLQSGVPSRFSGSGSGTDFTLTISSLQPEDFATYYCQQSVGLFFGGGTKVEIK
notes: Same V domains as CDAB1
With B1 the Kd (Mouse Robo2 [1]) was 7.13 nM, the koff (Mouse Robo2 [1]) was 0.00294 s⁻¹ and the kon (Mouse Robo2 [1]) was 412000 M⁻¹ s⁻¹.

B2: CDAB3 (scFv)
chain: DCGPPPDIPNARPILGRHSKFAEQSKVAYSCNNGFKQVPDKSNIVVCLENGQWSSHETFCEKSCVAPERLSFASLKKEYLNMNFFPVGTIVEYECRPGFRKQPPLPGKATCLEDLVWSPVAQFCKKKSCPNPKDLDNGHINIPTGILFGSEINFSCNPGYRLVGVSSTFCSVTGNTVDWDDEFPVCTEIHCPEPPKINNGIMRGESDSYTYSQVVTYSCDKGFILVGNASIYCTVSKSDVGQWSSPPPRCIEKSKVPTKKPTINVPSTGTPSTPQKPTTESVPNPGDQPTPQKPSTVKVSATQHVPVTKTTVRHPIRTSTDKGEPNTGGGGGSGGGGSGGGGSGGGGSEVQLVQSGAEVKKPGASVKVSCKASGYTFTGYYMHWVRQAPGQGLEWMGWINPKNGDTEFPQKFQGRVTMTRDTSITTAYMDLSRLRSDDTAVYYCARESGDDAFDIWGQGTMVTVSSGGGGGSGGGGSGGGGSDIVMTQSPSSLSASVGDRVTITCRASQSISSYLNWYQQKPGKAPKLLIYAASSLQSGVPSRFSGSGSGTDFTLTISSLQPEDFATYYCQQSVGLFFGGGTKVEIKHHHHHH
notes: Fc-less construct with the same V domains as CDAB1; It was loaded on 'anti-Streptavidin' biosensors, and no biotinylation is described
With B2 the Kd (Mouse Robo2 [2]) was 13.2 nM, the koff (Mouse Robo2 [2]) was 0.00291 s⁻¹ and the kon (Mouse Robo2 [2]) was 221000 M⁻¹ s⁻¹.

B3: CDAB1 (antibody, human IgG1, kappa)
heavy: EVQLVQSGAEVKKPGASVKVSCKASGYTFTGYYMHWVRQAPGQGLEWMGWINPKNGDTEFPQKFQGRVTMTRDTSITTAYMDLSRLRSDDTAVYYCARESGDDAFDIWGQGTMVTVSSASTKGPSVFPLAPSSKSTSGGTAALGCLVKDYFPEPVTVSWNSGALTSGVHTFPAVLQSSGLYSLSSVVTVPSSSLGTQTYICNVNHKPSNTKVDKKVEPKSCDKTHTCPPCPAPEAAGAPSVFLFPPKPKDTLMISRTPEVTCVVVDVSHEDPEVKFNWYVDGVEVHNAKTKPREEQYNSTYRVVSVLTVLHQDWLNGKEYKCKVSNKALPAPIEKTISKAKGQPREPQVYTLPPSREEMTKNQVSLTCLVKGFYPSDIAVEWESNGQPENNYKTTPPVLDSDGSFFLYSKLTVDKSRWQQGNVFSCSVMHEALHNHYTQKSLSLSPGGGGGSDCGPPPDIPNARPILGRHSKFAEQSKVAYSCNNGFKQVPDKSNIVVCLENGQWSSHETFCEKSCVAPERLSFASLKKEYLNMNFFPVGTIVEYECRPGFRKQPPLPGKATCLEDLVWSPVAQFCKKKSCPNPKDLDNGHINIPTGILFGSEINFSCNPGYRLVGVSSTFCSVTGNTVDWDDEFPVCTEIHCPEPPKINNGIMRGESDSYTYSQVVTYSCDKGFILVGNASIYCTVSKSDVGQWSSPPPRCIEKSKVPTKKPTINVPSTGTPSTPQKPTTESVPNPGDQPTPQKPSTVKVSATQHVPVTKTTVRHPIRTSTDKGEPNTG
light: DIVMTQSPSSLSASVGDRVTITCRASQSISSYLNWYQQKPGKAPKLLIYAASSLQSGVPSRFSGSGSGTDFTLTISSLQPEDFATYYCQQSVGLFFGGGTKVEIKRTVAAPSVFIFPPSDEQLKSGTASVVCLLNNFYPREAKVQWKVDNALQSGNSQESVTEQDSKDSTYSLSSTLTLSKADYEKHKVYACEVTHQGLSSPVTKSFNRGEC
notes: Anti-ROBO2 tether in IgG1 format with mouse CD55 ECD fused to the C-terminus of the heavy chain; also called CDAB1-HC; CDAB1-LC
In the case of B3, the “tethered IC50(nM), inhibition of C5b-9a deposition (Hycult classical complement mouse assay, tethered format)” value (recROBO2) is reported as 1.5 nM, the Kd (Mouse Robo2 [3]) is reported as 1.38 nM and the koff (Mouse Robo2 [3]) is reported as 0.00129 s⁻¹. The kon (Mouse Robo2 [3]) was 938000 M⁻¹ s⁻¹.
